# Data: the supplement of paper PMC7877785
# ± gives the uncertainty stated by the source.
# Assay: self-splicing fitness, log relative to wild type (ln ratio); higher = more splicing; Tetrahymena group I intron in knt gene, E. coli kanamycin selection, DiMSum; sequences stand for … in CUCUCU…GGAGGGAAAAGUUAUCAGGCAUGCACCUGGUAGCUAGUCUUUAAACCAAUAGAUUGCAUCGGUUUAAAAGGCAAGACCGUCAAAUUGCGGGAAAGGGGUCAACAGCCGUUCAGUACCAAGUCUCAGGGGAAACUUUGAGAUGGCCUUGCAAAGGGUAUGGUAAUAAGCUGACGGACAUGGUCCUAACCACGCAGCCAAGUCCUAAGUCAACAGAUCUUCUGUUGAUAUGGAUGCAGUUCACAGACUAAAUGUCGGUCGGGGAAGAUGUAUUCUUCUCAUAAGAUAUAGUCGGACCUCUCCUUAAUGGGAGCUAGCGGAUGAAGUGAUGCAACACUGGAGCCGCUGGGAACUAAUUUGUAUGCGAAAGUAUAUUGAUUAGUUUUGGAGUACUCGUGGUCG
# How it was run: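 Pooled colonies went to amplicon sequencing on an Illumina HiSeq 2500 after six replicate transformations. The plates were LB agar with 100 μg/mL carbenicillin, 50 μM IPTG and 0.2% rhamnose, with or without 25 μg/mL kanamycin, incubated overnight at 37°C or 30°C. The E. coli BL21(DE3) library had all eight P1ex-region intron nucleotides randomised, the intron placed in the knt kanamycin-resistance gene on pET-22b(+). DiMSum fitness is the error-weighted combination of replicate fold changes, kanamycin against none, normalised to wild type.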
sequence,measurement,setting,value
GCAAAGCAAUAUUACGGUUG,self-splicing fitness (ln),30 °C,-2.86 ± 0.13
same,self-splicing fitness (ln),37 °C,-2.04 ± 0.16
GCAAAGCAAUAUUACGUACU,self-splicing fitness (ln),30 °C,-0.928 ± 0.067
same,self-splicing fitness (ln),37 °C,0.299 ± 0.095
GCAAAGCAAUAUUACGUCAG,self-splicing fitness (ln),30 °C,-3.89 ± 0.29
same,self-splicing fitness (ln),37 °C,-1.56 ± 0.16
GCAAAGCAAUAUUACGUCUG,self-splicing fitness (ln),30 °C,-2.54 ± 0.11
same,self-splicing fitness (ln),37 °C,-1.69 ± 0.085
GCAAAGCAAUAUUACGUGAU,self-splicing fitness (ln),30 °C,-0.863 ± 0.053
same,self-splicing fitness (ln),37 °C,-0.973 ± 0.075
GCAAAGCAAUAUUACGUGUA,self-splicing fitness (ln),30 °C,-0.807 ± 0.071
same,self-splicing fitness (ln),37 °C,-0.701 ± 0.074
GCAAAGCAAUAUUACGUUCG,self-splicing fitness (ln),30 °C,-1.51 ± 0.08
same,self-splicing fitness (ln),37 °C,-0.192 ± 0.12
GCAAAGCAAUAUUACGUUCU,self-splicing fitness (ln),30 °C,-1.44 ± 0.094
same,self-splicing fitness (ln),37 °C,-0.638 ± 0.097
GCACAGCAAUAUUACGAACA,self-splicing fitness (ln),30 °C,-1.42 ± 0.11
same,self-splicing fitness (ln),37 °C,-0.85 ± 0.1
GCACAGCAAUAUUACGAAGG,self-splicing fitness (ln),30 °C,-1.31 ± 0.065
same,self-splicing fitness (ln),37 °C,-0.444 ± 0.096
GCACAGCAAUAUUACGAGCA,self-splicing fitness (ln),30 °C,-1.55 ± 0.11
same,self-splicing fitness (ln),37 °C,-0.832 ± 0.12
GCACAGCAAUAUUACGAUCG,self-splicing fitness (ln),30 °C,-1.08 ± 0.05
same,self-splicing fitness (ln),37 °C,-0.27 ± 0.069
GCACAGCAAUAUUACGCAUA,self-splicing fitness (ln),30 °C,-0.997 ± 0.088
same,self-splicing fitness (ln),37 °C,-0.269 ± 0.085
GCACAGCAAUAUUACGCCUU,self-splicing fitness (ln),30 °C,-0.943 ± 0.092
same,self-splicing fitness (ln),37 °C,-0.623 ± 0.087
GCACAGCAAUAUUACGCGAA,self-splicing fitness (ln),30 °C,-0.472 ± 0.066
same,self-splicing fitness (ln),37 °C,0.308 ± 0.071
GCACAGCAAUAUUACGCGCU,self-splicing fitness (ln),30 °C,-2.39 ± 0.22
same,self-splicing fitness (ln),37 °C,-1.1 ± 0.19
GCACAGCAAUAUUACGGGCA,self-splicing fitness (ln),30 °C,-1.84 ± 0.11
same,self-splicing fitness (ln),37 °C,-0.886 ± 0.094
GCACAGCAAUAUUACGGUAU,self-splicing fitness (ln),30 °C,-0.511 ± 0.038
same,self-splicing fitness (ln),37 °C,0.102 ± 0.059
GCACAGCAAUAUUACGUCGU,self-splicing fitness (ln),30 °C,-0.704 ± 0.083
same,self-splicing fitness (ln),37 °C,0.241 ± 0.091
GCACAGCAAUAUUACGUGGA,self-splicing fitness (ln),30 °C,-0.386 ± 0.064
same,self-splicing fitness (ln),37 °C,-0.281 ± 0.065
GCACAGCAAUAUUACGUGGU,self-splicing fitness (ln),30 °C,-3.37 ± 0.12
same,self-splicing fitness (ln),37 °C,-1.82 ± 0.097
GCACAGCAAUAUUACGUGUA,self-splicing fitness (ln),30 °C,-1.03 ± 0.052
same,self-splicing fitness (ln),37 °C,-0.512 ± 0.056
GCACAGCAAUAUUACGUGUG,self-splicing fitness (ln),30 °C,-3.68 ± 0.16
same,self-splicing fitness (ln),37 °C,-2.22 ± 0.14
GCACAGCAAUAUUACGUUGA,self-splicing fitness (ln),30 °C,-0.837 ± 0.071
same,self-splicing fitness (ln),37 °C,-0.158 ± 0.072
GCAGAGCAAUAUUACGAAAU,self-splicing fitness (ln),30 °C,-4.35 ± 0.29
same,self-splicing fitness (ln),37 °C,-2.79 ± 0.26
GCAGAGCAAUAUUACGACAA,self-splicing fitness (ln),30 °C,-1.8 ± 0.46
same,self-splicing fitness (ln),37 °C,-0.677 ± 0.43
GCAGAGCAAUAUUACGAGCG,self-splicing fitness (ln),30 °C,-2.33 ± 0.29
same,self-splicing fitness (ln),37 °C,-1.41 ± 0.23
GCAGAGCAAUAUUACGAUUA,self-splicing fitness (ln),30 °C,-2.28 ± 0.22
same,self-splicing fitness (ln),37 °C,0.0469 ± 0.18
GCAGAGCAAUAUUACGAUUC,self-splicing fitness (ln),30 °C,-2.56 ± 0.26
same,self-splicing fitness (ln),37 °C,-0.2 ± 0.22
GCAGAGCAAUAUUACGCAAA,self-splicing fitness (ln),30 °C,-3.37 ± 0.38
GCAGAGCAAUAUUACGCAGA,self-splicing fitness (ln),30 °C,-2.78 ± 0.42
same,self-splicing fitness (ln),37 °C,-2.22 ± 0.34
GCAGAGCAAUAUUACGCCUU,self-splicing fitness (ln),37 °C,-2.46 ± 0.33
GCAGAGCAAUAUUACGCGAG,self-splicing fitness (ln),30 °C,-3.58 ± 0.35
same,self-splicing fitness (ln),37 °C,-2.46 ± 0.28
GCAGAGCAAUAUUACGCUAC,self-splicing fitness (ln),37 °C,-1.68 ± 0.32
GCAGAGCAAUAUUACGCUUG,self-splicing fitness (ln),30 °C,-3.5 ± 0.21
same,self-splicing fitness (ln),37 °C,-2.83 ± 0.31
GCAGAGCAAUAUUACGGAGU,self-splicing fitness (ln),30 °C,-3.24 ± 0.2
same,self-splicing fitness (ln),37 °C,-2.05 ± 0.27
GCAGAGCAAUAUUACGGGUU,self-splicing fitness (ln),30 °C,-3.83 ± 0.3
same,self-splicing fitness (ln),37 °C,-2.6 ± 0.3
GCAGAGCAAUAUUACGGUCG,self-splicing fitness (ln),30 °C,-3.23 ± 0.12
same,self-splicing fitness (ln),37 °C,-1.44 ± 0.1
GCAGAGCAAUAUUACGUCUA,self-splicing fitness (ln),30 °C,-2.7 ± 0.23
same,self-splicing fitness (ln),37 °C,-2.57 ± 0.24
GCAGAGCAAUAUUACGUCUG,self-splicing fitness (ln),30 °C,-3.95 ± 0.33
same,self-splicing fitness (ln),37 °C,-3.13 ± 0.47
GCAGAGCAAUAUUACGUGAC,self-splicing fitness (ln),30 °C,-2.91 ± 0.12
same,self-splicing fitness (ln),37 °C,-1.54 ± 0.11
GCAGAGCAAUAUUACGUGGA,self-splicing fitness (ln),30 °C,-2.94 ± 0.4
same,self-splicing fitness (ln),37 °C,-3.35 ± 0.39
GCAGAGCAAUAUUACGUGUA,self-splicing fitness (ln),30 °C,-3.61 ± 0.35
same,self-splicing fitness (ln),37 °C,-1.17 ± 0.16
GCAGAGCAAUAUUACGUGUU,self-splicing fitness (ln),30 °C,-4.35 ± 0.3
same,self-splicing fitness (ln),37 °C,-2.42 ± 0.18
GCAGAGCAAUAUUACGUUCC,self-splicing fitness (ln),37 °C,-1.51 ± 0.29
GCAGAGCAAUAUUACGUUCU,self-splicing fitness (ln),30 °C,-2.78 ± 0.24
same,self-splicing fitness (ln),37 °C,-2.18 ± 0.29
GCAGAGCAAUAUUACGUUGA,self-splicing fitness (ln),30 °C,-2.53 ± 0.2
same,self-splicing fitness (ln),37 °C,-2.15 ± 0.25
GCAUAGCAAUAUUACGAAGA,self-splicing fitness (ln),30 °C,-2 ± 0.23
same,self-splicing fitness (ln),37 °C,-0.497 ± 0.16
GCAUAGCAAUAUUACGAUGC,self-splicing fitness (ln),30 °C,-2.72 ± 0.28
GCAUAGCAAUAUUACGCAUG,self-splicing fitness (ln),30 °C,-3.79 ± 0.23
same,self-splicing fitness (ln),37 °C,-2.12 ± 0.19
GCAUAGCAAUAUUACGCCUC,self-splicing fitness (ln),30 °C,-1.01 ± 0.23
same,self-splicing fitness (ln),37 °C,-0.756 ± 0.28
GCAUAGCAAUAUUACGCGCG,self-splicing fitness (ln),30 °C,-1.06 ± 0.079
same,self-splicing fitness (ln),37 °C,-0.259 ± 0.092
GCAUAGCAAUAUUACGCUAG,self-splicing fitness (ln),30 °C,-2.24 ± 0.3
same,self-splicing fitness (ln),37 °C,-1.82 ± 0.23
GCAUAGCAAUAUUACGCUCC,self-splicing fitness (ln),30 °C,-1.61 ± 0.17
same,self-splicing fitness (ln),37 °C,-1.94 ± 0.31
GCAUAGCAAUAUUACGCUGC,self-splicing fitness (ln),30 °C,-3.08 ± 0.44
same,self-splicing fitness (ln),37 °C,-2.11 ± 0.37
GCAUAGCAAUAUUACGGAUA,self-splicing fitness (ln),30 °C,-1.81 ± 0.22
same,self-splicing fitness (ln),37 °C,-0.643 ± 0.18
GCAUAGCAAUAUUACGGAUC,self-splicing fitness (ln),30 °C,-2.47 ± 0.21
same,self-splicing fitness (ln),37 °C,-1.63 ± 0.18
GCAUAGCAAUAUUACGGCGC,self-splicing fitness (ln),30 °C,-0.822 ± 0.17
same,self-splicing fitness (ln),37 °C,-0.485 ± 0.2
GCAUAGCAAUAUUACGGGAA,self-splicing fitness (ln),30 °C,-2.52 ± 0.21
same,self-splicing fitness (ln),37 °C,-0.707 ± 0.12
GCAUAGCAAUAUUACGGGAG,self-splicing fitness (ln),30 °C,-2.96 ± 0.19
same,self-splicing fitness (ln),37 °C,-0.949 ± 0.12
GCAUAGCAAUAUUACGGGCA,self-splicing fitness (ln),30 °C,-1.67 ± 0.14
same,self-splicing fitness (ln),37 °C,-0.974 ± 0.12
GCAUAGCAAUAUUACGGGGC,self-splicing fitness (ln),30 °C,-3.43 ± 0.23
same,self-splicing fitness (ln),37 °C,-2.72 ± 0.32
GCAUAGCAAUAUUACGUACC,self-splicing fitness (ln),30 °C,-0.706 ± 0.19
same,self-splicing fitness (ln),37 °C,-0.405 ± 0.26
GCAUAGCAAUAUUACGUCAG,self-splicing fitness (ln),30 °C,-2.47 ± 0.16
same,self-splicing fitness (ln),37 °C,-1.8 ± 0.23
GCAUAGCAAUAUUACGUCCC,self-splicing fitness (ln),30 °C,-1.38 ± 0.22
same,self-splicing fitness (ln),37 °C,0.182 ± 0.21
GCAUAGCAAUAUUACGUCUU,self-splicing fitness (ln),30 °C,-1.46 ± 0.1
same,self-splicing fitness (ln),37 °C,-0.342 ± 0.11
GCAUAGCAAUAUUACGUGAA,self-splicing fitness (ln),30 °C,-0.877 ± 0.067
same,self-splicing fitness (ln),37 °C,-0.528 ± 0.07
GCCAAGCAAUAUUACGAAAG,self-splicing fitness (ln),30 °C,-3.63 ± 0.21
same,self-splicing fitness (ln),37 °C,-0.702 ± 0.2
GCCAAGCAAUAUUACGAACU,self-splicing fitness (ln),30 °C,-1.3 ± 0.18
same,self-splicing fitness (ln),37 °C,-0.873 ± 0.22
GCCAAGCAAUAUUACGAAGU,self-splicing fitness (ln),30 °C,-1.12 ± 0.049
same,self-splicing fitness (ln),37 °C,-0.235 ± 0.064
GCCAAGCAAUAUUACGACCU,self-splicing fitness (ln),30 °C,-1.34 ± 0.11
same,self-splicing fitness (ln),37 °C,-1.54 ± 0.15
GCCAAGCAAUAUUACGAGAG,self-splicing fitness (ln),30 °C,-2.88 ± 0.34
same,self-splicing fitness (ln),37 °C,-1.53 ± 0.22
GCCAAGCAAUAUUACGAGCC,self-splicing fitness (ln),30 °C,-3.51 ± 0.43
same,self-splicing fitness (ln),37 °C,-1.99 ± 0.43
GCCAAGCAAUAUUACGAGUA,self-splicing fitness (ln),30 °C,-3.27 ± 0.13
same,self-splicing fitness (ln),37 °C,-1.61 ± 0.07
GCCAAGCAAUAUUACGAGUC,self-splicing fitness (ln),30 °C,-1.58 ± 0.1
same,self-splicing fitness (ln),37 °C,-1.1 ± 0.12
GCCAAGCAAUAUUACGCAAA,self-splicing fitness (ln),30 °C,-1.13 ± 0.11
same,self-splicing fitness (ln),37 °C,-0.448 ± 0.12
